In PMC8705320:

Key:
[1] = target: papain (UniProt P00784)
[2] = target: human cathepsin L (human) (UniProt P07711); experiment: enzyme inhibition kinetics (Dixon plot); cathepsin L 0.4 nM; Cystatin-Hv 8, 16 and 24 nM; Z-FR-AMC substrate at 1 Km and 2 Km; 50 mM sodium phosphate, 200 mM NaCl, 5 mM EDTA, pH 5.5, 6 mM DTT preactivation; 37 °C; fluorescence read each minute for 15 min

Chain of UniProt P00784 (P00784 134-345): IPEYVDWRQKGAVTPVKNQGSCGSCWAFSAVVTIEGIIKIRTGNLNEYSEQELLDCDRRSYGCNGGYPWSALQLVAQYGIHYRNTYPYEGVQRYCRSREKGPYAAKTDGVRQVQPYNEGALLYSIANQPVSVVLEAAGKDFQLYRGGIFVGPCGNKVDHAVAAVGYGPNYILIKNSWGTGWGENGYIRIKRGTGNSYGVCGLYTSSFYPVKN

Cystatin-Hv (recombinant cystatin of the leech Haementeria vizottoi) (natural protein)
IC50 of inhibition of papain activity (papain 21.4 nmol/L or 50 ng, 5 µM Z-FR-MCA substrate; 1, 5, 10 and 15 µg of pool 2 from ion-exchange chromatography) [1]: 120 nM
Ki [2]: 7.9 nM
